Results as given in US20230272056A1 (Merck Sharp & Dohme, published 2023).
Changes are numbered by the printed parent chain. Numbers in names are those of the source.

B1: 63BJN (Fab, V domains shown)
VH: EVQLVQSGAEVKKPGASVKVSCKASGYTFTFYDIHWVRQAPGQGLEWMGRIDPQSGGIKYAQKFQGRATLTVDTSTSTAYMELSRLRSDDTAVYYCARWDYGGYFDVWGQGTLVTVSS
VL: DIQMTQSPSSLSASVGDRVTITCRASQDIYNYLNWYQQKPGKAVKLLIYYTSRLHSGVPSRFSGSGSGTDYTLTISSLQPEDFATYFCQQGDTLPWTFGQGTKLEIKR
notes: also called VH S31F W33D M34I / VL T30Y (63BJN)
B2: 67BJN (Fab, V domains shown)
VH: B1 VH with F31S, I34M
VL: B1 VL with R53V
notes: also called VH W33D / VL T30Y R53V (67BJN)
B3: 72BJN (Fab, V domains shown)
VH: B1 VH with F31Q, I34M, W99Y
VL: B1 VL with R53I
notes: also called VH S31Q W33D W99Y / VL T30Y R53I (72BJN)
B4: 77BJN (Fab, V domains shown)
VH: B1 VH with F31S, I34M, I58V
VL: B1 VL with R53V, T93E
notes: also called VH W33D I58V / VL T30Y R53V T93E (77BJN)
B5: 74BJN (Fab, V domains shown)
VH: B1 VH with F31Y, I34L
VL: B1 VL with T93D, L94I
notes: also called VH S31Y W33D M34L / VL T30Y T93D L94I (74BJN)
B6: 80BJN (Fab, V domains shown)
VH: B1 VH with F31S, I34M, K59R, Y104Q
VL: B1 VL with R53I
notes: also called VH W33D K59R Y104Q / VL T30Y R53I (80BJN)
B7: 78BJN (Fab, V domains shown)
VH: B1 VH with F31S, I34M, K59R
VL: B1 VL with R53N, T93E
notes: also called VH W33D K59R / VL T30Y R53N T93E (78BJN)
B8: 73BJN (Fab, V domains shown)
VH: B1 VH with F31S, I34M
VL: B1 VL
notes: also called VH W33D / VL T30Y (73BJN)
B9: 65BJN (Fab, V domains shown)
VH: B1 VH with F31S, I34L, W99Y, Y101Q
VL: B1 VL with N31Y
notes: also called VH W33D M34L W99Y Y101Q / VL T30Y N31Y (65BJN)
B10: 81BJN (Fab, V domains shown)
VH: B1 VH with F31E, I34M, K59R, Y104Q, V107A
VL: B1 VL with R53V
notes: also called VH S31E W33D K59R Y104Q V107A / VL T30Y R53V (81BJN)
B11: 68BJN (Fab, V domains shown)
VH: B1 VH with F31S, D33W, I34M, H35Q, S55D, G57D, W99Y
VL: B1 VL with R53V
notes: also called VH H35Q S55D S57D W99Y / VL T30Y R53V (68BJN)
B12: 76BJN (Fab, V domains shown)
VH: B1 VH with F31Y, I34M, Q54Y, S55D, G57D
VL: B1 VL with R53L, T93E
notes: also called VH S31Y W33D Q54Y S55D G57D / VL T30Y R53L T93E (76BJN)
B13: 71BJN (Fab, V domains shown)
VH: B1 VH with F31S, I34M, S55T, G57D, Y104Q
VL: B1 VL with R53G
notes: also called VH W33D S55T G57D Y104Q / VL T30Y R53G (71BJN)
B14: 75BJN (Fab, V domains shown)
VH: B1 VH with F31K, I34M, S55D, I58F
VL: B1 VL with Y30F, R53Y, T93E
notes: Label says VL T30Y but the printed LCDR1 reads F at 30; also called VH S31K W33D S55D I58F / VL T30Y R53Y T93E (75BJN)
B15: 66BJN (Fab, V domains shown)
VH: B1 VH with F31S, I34M, S55T, Y101H
VL: B1 VL with L94Q
notes: also called VH W33D S55T Y101H / VL T30Y L94Q (66BJN)
B16: 82BJN (Fab, V domains shown)
VH: B1 VH with F31S, D33Y, I34M, H35N, I58V, D100H, Y104Q
VL: B1 VL with R53G
notes: also called VH W33Y H35N I58V D100H Y104Q / VL T30Y R53G (82BJN)
B17: 64BJN (Fab, V domains shown)
VH: B1 VH with F31T, D33W, I34M, I58S
VL: B1 VL with R53H
notes: also called VH S31T I58S / VL T30Y R53H (64BJN)
B18: 79BJN (Fab, V domains shown)
VH: B1 VH with F31S, I34M, S55D, G57D, I58V
VL: B1 VL with R53G, T93E
notes: also called VH W33D S55D S57D I58V / VL T30Y R53G T93E (79BJN)

target: T1, human LAP-TGFB1 Fc fusion (human); experiment: SPR, antigen-Fc captured, Fab analyte
T1 construct: also called human LAP-TGFβ1-Fc; human LAP-TGFβ-Fc isoform 1
Text: (§1) This Example describes the isoform specificity of the yeast display mutants to bind to human LAP-TGFβ isoforms 1, 2, and 3 using surface plasmon resonance. A Series S CM4 sensor chip (GE Healthcare, catalog BR100534) was immobilized with an anti-human Fc capture antibody following the kit protocol (GE Healthcare, catalog BR100839) on a Biacore T200 instrument with 1× HBS-EP+ (Teknova, catalog H8022). […] Binding specificity experiments between human LAP-TGFβ isoforms 2 and 3 and yeast display mutants were performed in 1× HBS-EP+ with 0.1 mg/mL BSA at 25° C. Approximately 20-40 RU amounts of human LAP-TGFβ2 and 3 were captured to the anti-human Fc surface followed by injection of 1000 nM Fab including a negative control 0 nM Fab. The binding data were double referenced by subtraction of signal from a reference (capture surface only) flow cell and the negative control 0 nM Fab injection. Binding rate constants were determined by fitting the data with a 1:1 binding model (GE Healthcare Biacore T200 Evaluation software 3.0).

T1 sequence (chain, as listed by the source limits assumed): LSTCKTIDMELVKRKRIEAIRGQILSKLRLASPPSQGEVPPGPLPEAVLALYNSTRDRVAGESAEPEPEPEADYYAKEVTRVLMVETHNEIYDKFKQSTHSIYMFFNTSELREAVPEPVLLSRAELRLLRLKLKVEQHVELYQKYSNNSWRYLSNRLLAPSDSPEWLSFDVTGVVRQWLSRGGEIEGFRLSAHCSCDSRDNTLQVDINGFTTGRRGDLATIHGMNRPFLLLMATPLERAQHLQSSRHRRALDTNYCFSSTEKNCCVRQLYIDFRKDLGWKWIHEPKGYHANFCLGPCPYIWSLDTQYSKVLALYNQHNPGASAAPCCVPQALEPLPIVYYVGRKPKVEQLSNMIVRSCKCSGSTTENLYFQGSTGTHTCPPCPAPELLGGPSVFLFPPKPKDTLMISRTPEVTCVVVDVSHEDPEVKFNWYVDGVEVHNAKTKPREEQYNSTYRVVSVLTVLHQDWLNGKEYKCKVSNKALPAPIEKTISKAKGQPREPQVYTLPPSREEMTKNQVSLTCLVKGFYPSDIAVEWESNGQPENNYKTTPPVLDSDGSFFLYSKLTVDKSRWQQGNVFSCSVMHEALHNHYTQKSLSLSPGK

Row | Binder | Fold improvement in KD | Kd | koff | kon
1 | B1 | 25 fold | 3.23 nM | 0.0053 s⁻¹ | 1.64e+06 M⁻¹ s⁻¹
2 | B2 | 512 fold | 0.156 nM | 0.000762 s⁻¹ | 4.87e+06 M⁻¹ s⁻¹
3 | B3 | 130 fold | 0.615 nM | 0.00298 s⁻¹ | 4.85e+06 M⁻¹ s⁻¹
4 | B4 | 1540 fold | 0.0517 nM | 0.00027 s⁻¹ | 5.22e+06 M⁻¹ s⁻¹
5 | B5 | 196 fold | 0.408 nM | 0.00181 s⁻¹ | 4.45e+06 M⁻¹ s⁻¹
6 | B6 | 13200 fold | 0.00607 nM | 2.52e-05 s⁻¹ | 4.15e+06 M⁻¹ s⁻¹
7 | B7 | 1120 fold | 0.0713 nM | 0.000393 s⁻¹ | 5.52e+06 M⁻¹ s⁻¹
8 | B8 | 133 fold | 0.601 nM | 0.0031 s⁻¹ | 5.15e+06 M⁻¹ s⁻¹
9 | B9 | 10 fold | 8.12 nM | 0.0238 s⁻¹ | 2.94e+06 M⁻¹ s⁻¹
10 | B10 | 12700 fold | 0.00629 nM | 2.56e-05 s⁻¹ | 4.08e+06 M⁻¹ s⁻¹
11 | B11 | 4200 fold | 0.0191 nM | 8.34e-05 s⁻¹ | 4.36e+06 M⁻¹ s⁻¹
12 | B12 | 768 fold | 0.104 nM | 0.000186 s⁻¹ | 1.8e+06 M⁻¹ s⁻¹
13 | B13 | 3200 fold | 0.0251 nM | 6.8e-05 s⁻¹ | 2.71e+06 M⁻¹ s⁻¹
14 | B14 | 1180 fold | – | – | –
15 | B15 | 13 fold | 6.21 nM | 0.0131 s⁻¹ | 2.11e+06 M⁻¹ s⁻¹
16 | B16 | 8610 fold | 0.00928 nM | 2.6e-05 s⁻¹ | 2.81e+06 M⁻¹ s⁻¹
17 | B17 | 37 fold | 2.15 nM | 0.0077 s⁻¹ | 3.57e+06 M⁻¹ s⁻¹
18 | B18 | 3630 fold | 0.022 nM | 0.000128 s⁻¹ | 5.84e+06 M⁻¹ s⁻¹

target: T2, human LAP-TGFB2 Fc fusion (human); experiment: SPR
T2 construct: also called human LAP-TGFβ2; LAP-TGFβ isoform 2
Text: as §1

T2 sequence (chain, as listed by the source limits assumed): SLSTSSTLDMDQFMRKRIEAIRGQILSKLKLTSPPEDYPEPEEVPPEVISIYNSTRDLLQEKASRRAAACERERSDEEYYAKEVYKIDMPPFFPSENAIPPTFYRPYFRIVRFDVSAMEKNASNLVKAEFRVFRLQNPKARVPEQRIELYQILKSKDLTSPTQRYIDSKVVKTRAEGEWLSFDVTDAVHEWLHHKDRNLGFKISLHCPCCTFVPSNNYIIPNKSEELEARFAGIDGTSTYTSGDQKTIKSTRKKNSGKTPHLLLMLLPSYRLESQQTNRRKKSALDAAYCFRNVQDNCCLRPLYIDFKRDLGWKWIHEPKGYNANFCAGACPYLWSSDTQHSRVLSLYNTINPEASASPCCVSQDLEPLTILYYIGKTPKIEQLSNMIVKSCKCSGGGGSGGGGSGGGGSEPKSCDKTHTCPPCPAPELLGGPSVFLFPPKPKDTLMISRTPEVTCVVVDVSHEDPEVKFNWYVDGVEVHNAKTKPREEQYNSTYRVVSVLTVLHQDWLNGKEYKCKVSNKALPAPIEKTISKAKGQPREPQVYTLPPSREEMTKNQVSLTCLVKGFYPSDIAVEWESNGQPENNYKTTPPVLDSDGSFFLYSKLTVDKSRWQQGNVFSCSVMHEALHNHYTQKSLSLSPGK

Row | Binder | binding result
19 | B1 | no binding (tested: 1000 nM Fab)
20 | B2 | no binding (tested: 1000 nM Fab)
21 | B3 | no binding (tested: 1000 nM Fab)
22 | B4 | no binding (tested: 1000 nM Fab)
23 | B5 | no binding (tested: 1000 nM Fab)
24 | B6 | no binding (tested: 1000 nM Fab)
25 | B7 | no binding (tested: 1000 nM Fab)
26 | B8 | no binding (tested: 1000 nM Fab)
27 | B9 | no binding (tested: 1000 nM Fab)
28 | B10 | no binding (tested: 1000 nM Fab)
29 | B11 | no binding (tested: 1000 nM Fab)
30 | B12 | no binding (tested: 1000 nM Fab)
31 | B13 | no binding (tested: 1000 nM Fab)
32 | B14 | no binding (tested: 1000 nM Fab)
33 | B15 | no binding (tested: 1000 nM Fab)
34 | B16 | no binding (tested: 1000 nM Fab)
35 | B17 | no binding (tested: 1000 nM Fab)
36 | B18 | no binding (tested: 1000 nM Fab)

target: T3, human LAP-TGFB3 Fc fusion (human); experiment: SPR
T3 construct: also called human LAP-TGFβ3; LAP-TGFβ isoform 3
Text: as §1

T3 sequence (chain, as listed by the source limits assumed): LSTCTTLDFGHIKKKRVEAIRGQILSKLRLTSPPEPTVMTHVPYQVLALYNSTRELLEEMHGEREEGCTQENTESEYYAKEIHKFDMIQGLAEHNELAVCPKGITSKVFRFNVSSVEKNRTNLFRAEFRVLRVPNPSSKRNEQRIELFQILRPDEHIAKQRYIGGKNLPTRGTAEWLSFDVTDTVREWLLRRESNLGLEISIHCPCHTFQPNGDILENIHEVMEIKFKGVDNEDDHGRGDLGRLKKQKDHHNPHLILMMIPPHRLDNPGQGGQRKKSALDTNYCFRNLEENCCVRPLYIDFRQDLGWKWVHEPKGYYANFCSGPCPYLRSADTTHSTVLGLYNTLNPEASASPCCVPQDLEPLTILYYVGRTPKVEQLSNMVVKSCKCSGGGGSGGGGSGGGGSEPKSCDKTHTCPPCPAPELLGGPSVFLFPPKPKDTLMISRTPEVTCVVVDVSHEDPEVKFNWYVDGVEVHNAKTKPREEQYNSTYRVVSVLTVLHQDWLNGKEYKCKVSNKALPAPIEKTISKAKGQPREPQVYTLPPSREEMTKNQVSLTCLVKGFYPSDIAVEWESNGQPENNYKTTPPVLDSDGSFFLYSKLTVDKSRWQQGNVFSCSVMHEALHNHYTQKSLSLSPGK

Row | Binder | binding result
37 | B1 | no binding (tested: 1000 nM Fab)
38 | B2 | no binding (tested: 1000 nM Fab)
39 | B3 | no binding (tested: 1000 nM Fab)
40 | B4 | no binding (tested: 1000 nM Fab)
41 | B5 | no binding (tested: 1000 nM Fab)
42 | B6 | no binding (tested: 1000 nM Fab)
43 | B7 | no binding (tested: 1000 nM Fab)
44 | B8 | no binding (tested: 1000 nM Fab)
45 | B9 | no binding (tested: 1000 nM Fab)
46 | B10 | no binding (tested: 1000 nM Fab)
47 | B11 | no binding (tested: 1000 nM Fab)
48 | B12 | no binding (tested: 1000 nM Fab)
49 | B13 | no binding (tested: 1000 nM Fab)
50 | B14 | no binding (tested: 1000 nM Fab)
51 | B15 | no binding (tested: 1000 nM Fab)
52 | B16 | no binding (tested: 1000 nM Fab)
53 | B17 | no binding (tested: 1000 nM Fab)
54 | B18 | no binding (tested: 1000 nM Fab)
